Target: the molecule itself
Experiment: SEC; FPLC (AKTA system), buffer A (Table S1); multiple runs on diluted protein to allow c-di-GMP to dissociate on the column

B1: PleD from C. crescentus (enzyme, UniProt Q9A5I5 1-454, looked up)
chain: MSARILVVDDIEANVRLLEAKLTAEYYEVSTAMDGPTALAMAARDLPDIILLDVMMPGMDGFTVCRKLKDDPTTRHIPVVLITALDGRGDRIQGLESGASDFLTKPIDDVMLFARVRSLTRFKLVIDELRQREASGRRMGVIAGAAARLDGLGGRVLIVDDNERQAQRVAAELGVEHRPVIESDPEKAKISAGGPVDLVIVNAAAKNFDGLRFTAALRSEERTRQLPVLAMVDPDDRGRMVKALEIGVNDILSRPIDPQELSARVKTQIQRKRYTDYLRNNLDHSLELAVTDQLTGLHNRRYMTGQLDSLVKRATLGGDPVSALLIDIDFFKKINDTFGHDIGDEVLREFALRLASNVRAIDLPCRYGGEEFVVIMPDTALADALRIAERIRMHVSGSPFTVAHGREMLNVTISIGVSATAGEGDTPEALLKRADEGVYQAKASGRNAVVGKAA
notes: PleD, diguanylate cyclase of C. crescentus; In the functional assay the protein was also used after treatment with NaF and BeCl2 (beryllium fluoride, mimics phosphorylation); source: E. coli BL21 (DE3), purified (Ni2+-IMAC HisTrap, multiple FPLC runs)
- stoichiometry N: 2

— PMC7825114, “Studying GGDEF Domain in the Act: Minimize Conformational Frustration to Prevent Artefacts” (Life, 2021)
